What was measured:
Experiment in all cases: peptide competition for albumin
[1] = target: T1, rat serum albumin (rat), P02770
T1 chain: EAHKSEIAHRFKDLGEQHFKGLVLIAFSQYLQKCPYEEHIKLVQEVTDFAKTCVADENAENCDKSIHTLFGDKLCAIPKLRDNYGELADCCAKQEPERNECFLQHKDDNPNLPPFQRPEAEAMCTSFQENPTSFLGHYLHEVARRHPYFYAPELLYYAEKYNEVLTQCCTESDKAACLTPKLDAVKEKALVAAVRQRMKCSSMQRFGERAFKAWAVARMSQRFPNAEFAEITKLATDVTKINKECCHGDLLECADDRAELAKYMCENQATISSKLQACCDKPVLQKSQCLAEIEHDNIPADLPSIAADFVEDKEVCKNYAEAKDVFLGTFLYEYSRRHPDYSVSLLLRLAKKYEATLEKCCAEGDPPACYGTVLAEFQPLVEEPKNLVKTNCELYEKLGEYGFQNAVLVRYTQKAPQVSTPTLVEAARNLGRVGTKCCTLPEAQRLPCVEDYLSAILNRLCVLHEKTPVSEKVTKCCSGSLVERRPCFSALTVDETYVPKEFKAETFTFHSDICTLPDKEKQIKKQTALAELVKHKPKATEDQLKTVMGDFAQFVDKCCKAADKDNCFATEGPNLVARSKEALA

[2] = target: T2, rabbit serum albumin (rabbit), P49065
T2 chain: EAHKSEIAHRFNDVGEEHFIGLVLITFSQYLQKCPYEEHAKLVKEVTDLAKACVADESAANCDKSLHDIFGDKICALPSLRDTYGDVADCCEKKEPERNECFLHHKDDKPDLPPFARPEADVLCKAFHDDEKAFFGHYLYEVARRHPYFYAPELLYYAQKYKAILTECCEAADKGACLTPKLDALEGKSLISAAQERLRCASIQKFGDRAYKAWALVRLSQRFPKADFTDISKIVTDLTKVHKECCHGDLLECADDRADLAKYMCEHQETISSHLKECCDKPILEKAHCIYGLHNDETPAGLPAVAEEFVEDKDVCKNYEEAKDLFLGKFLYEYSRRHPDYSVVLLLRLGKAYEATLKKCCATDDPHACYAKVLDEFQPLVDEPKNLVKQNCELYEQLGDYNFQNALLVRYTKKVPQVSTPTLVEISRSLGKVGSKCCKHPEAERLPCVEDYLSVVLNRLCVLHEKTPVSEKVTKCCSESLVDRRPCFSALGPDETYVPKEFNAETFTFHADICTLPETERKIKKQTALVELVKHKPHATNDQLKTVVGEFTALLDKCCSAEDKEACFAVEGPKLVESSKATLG

[3] = target: mouse serum albumin (mouse), P07724
mouse serum albumin (mouse), P07724, sequence (P07724 25-608 limits assumed): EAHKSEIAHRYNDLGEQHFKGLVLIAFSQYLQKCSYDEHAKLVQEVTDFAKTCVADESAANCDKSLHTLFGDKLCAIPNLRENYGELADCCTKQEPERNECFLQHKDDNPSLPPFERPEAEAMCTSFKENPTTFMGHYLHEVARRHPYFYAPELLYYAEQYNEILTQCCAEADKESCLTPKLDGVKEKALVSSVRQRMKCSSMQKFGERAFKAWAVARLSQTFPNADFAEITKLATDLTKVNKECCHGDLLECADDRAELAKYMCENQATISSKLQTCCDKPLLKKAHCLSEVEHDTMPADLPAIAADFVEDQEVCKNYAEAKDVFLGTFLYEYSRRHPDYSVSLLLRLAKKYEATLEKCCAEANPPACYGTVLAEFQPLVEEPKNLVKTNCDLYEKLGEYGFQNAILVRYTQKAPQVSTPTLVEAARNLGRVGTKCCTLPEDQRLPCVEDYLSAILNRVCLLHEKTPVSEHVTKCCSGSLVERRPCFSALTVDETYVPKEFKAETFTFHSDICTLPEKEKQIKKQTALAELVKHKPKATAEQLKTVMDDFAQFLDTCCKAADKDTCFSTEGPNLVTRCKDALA

RLMEDICLARWGCLWEDD (modifications not checked) [SA13]
IC50 [1]: 2480 nM
IC50 [2]: 3200 nM
IC50 [3]: 188 nM

Reference: US20060073152A1
